Where two headings read alike, the source gives them in different places.
Columns and labels:
Cys-HLA [1] = biological target: T1, Cys-HLA (Staphylococcus aureus)
Cys-HLA [2] = biological target: T1, Cys-HLA; remark: listed apart in the source
Cys-HLA [3] = biological target: T1, Cys-HLA; remark: listed apart in the source
Cys-HLA [4] = biological target: T1, Cys-HLA; remark: listed apart in the source

| Binder | Kd (Cys-HLA [1]) [nM] | further results |
| --- | --- | --- |
| Ma7C11 (VHH) VHH: QVQLVESGGGLVRAGGSLRLSCAASGSISSVNGMGWFRQAPGKERLFVAQVSLLDSSTYYADSVKGRFTISRDDAKNTMYLQMNNVRPEETAVYYCAATKLRIGTAFSSEYDYWGQGTQVTVSS | 0.3 | – |
| Ma8E03 (VHH) VHH: QVQLVESGGGLVHPGGSLRLSCAASGSSLDHYVIGWFRQVPGKEREGVSCISRSGGSTNYADSVKGRFTVSRDNVKNMVYLQMNSLEPEDSAEYYCAAQRNLGNFCVLGWLEYDDWGQGTQVTVSS | ≤ 0.01 | – |
| Ma8G02 (VHH) VHH: QVQLVESGGGLVLPGGSLRLSCAASGSSLDHYVIGWFRQYPGKEREGVSCISRSGGSTNYADSVKGRFTVSRDNVKNMVYLQMNSLEPEDSAEYYCAAQRNLGNFCVLGWVEYDDWGQGTQVTVSS | ≤ 0.01 | – |
| Ma7A07 (VHH) VHH: QVQLVESGGGLVQPGGSLRLSCAASGFTLGDYTLGWFRQAPGKQREGVSSIASSALSIYIADSVKGRFTISRDDAKNTIYLHMNNLKPEDTGVYYCARGVDSWRWVPSAMDLWGKGTLVTVSS | ≤ 0.01 | Kd (Cys-HLA [2]): 6 pM |
| Ma7B03 (VHH) VHH: QVQLVESGGGLVQPGGSLRLSCAASGFTLSNYYVGWFRQAPGKQREGVSSIGSSDLSIYIADSVKGRFTISRDNAKNTIYLHMNNLKPDDTGVYYCARGTDSWRWVPSAMDLWGKGTQVTVSS | ≤ 0.01 | – |
| Ma7B12 (VHH) VHH: QVQLVESGGGLVQPGGSLRLSCAASGFTLGDYTLGWFRQAPGKQREGVSSIASSALSIYIADSVKGRFTISRDNAKNTVYLHMNNLKPEDTGVYYCARGIDNWRWVPSAMDLWGKGTQVTVSS | ≤ 0.01 | – |
| Ma7A08 (VHH) VHH: QVQLVESGGGLVQPGGSLTLSCAASGFTLGDYTLGWFRQAPGKQREGVSSIASSVLSVYIADSVKGRFTISRDDAKNTIYLHMNNLKPEDTGVYYCARGVDSWRWVPSAMDLWGKGTLVTVSS | ≤ 0.01 | – |
| Bm28A12 (VHH) VHH: QVQLVESGGGLVQAGGSLRLSCVVSGRALSSYNLAWFRQSPGKEREWIATIMPSADKAHYPDFLEGRFTISGDNTENTLYLQMNSLKPEDTAIYYCAAREPSYYHALFEYEYNLWGQGTQVTVSS | ≤ 0.01 | Kd (Cys-HLA [3]): 0.13 nM |
| Ma7B01 (VHH) VHH: QVQLVESGGGLVQAGDSLSLSCAASGRTFSNYAMGWFRQAPGKERHFVAVINQIGDSTWYPDFAKGRFTISRDNAKNTLYLQMNSLKPEDTAVYYCAATDPRSYWRIWPHEYGYWGQGTQVTVSS | 0.05 | – |
| Ma7E01 (VHH) VHH: QVQLVESGGGSVQAGDSLSLSCVASERTFSNYAMGWFRQAPGKERHFVAVINPIGEETWYPDFAKGRFTISRDNAKNTLYLQMNSLKPEDTAVYYCAATDPRSYWRIWEHEFDYWGQGTQVTVSS | ≤ 0.01 | – |
| Bm28F09 (VHH) VHH: QVQLVESGGGLVEPGGSLTLSCAASGFTSKNYYIGWFRQAPGKYREGVASIGASDGSLYIADSVKGRFTISSDNAKNTVYLHPRNLKPEDSGVYYCATGRDSWRWVPSAMDYWGKGIQVTVSS | 0.15 | – |
| Ma8A05 (VHH) VHH: QVQLVESGGGLVQPGGSLRLSCAASPASGFTLDLYTIAWFLQAPGKEREGVSAISLSDEITYYSDAVKGRFTISRDSAKNTVFLQMDRLKPEDTGVYYCAIGAFDFILKEADADYWGQGTQVTVSS | 0.6 | – |
| Ma8D05 (VHH) VHH: QVQLVESGGGLVQPGGSLRLSCAASPASGFTLDLYTIAWFLQAPGKEREGVSAISLSDEITYYSDTVKGRFTISRDSAKNTVFLQMDRLKPEDTGVYYCAIGAFDFILKEADADYWGQGTQVTVSS | 1 | – |
| Ma31B06 (VHH) VHH: QVQLVQSGGGLVQPGGTLRLSCAASPASGFTLDLYTIAWFLQAPGKEREGVSAISLSDEITYYSDAVKGRFTISRDSAKNTVFLQMDRLKPEDTGVYYCAIGAFDFILKEADADYWGQGTQVTVSS | 0.075 | – |
| Ma31A12 (VHH) VHH: QVQLVESGGGLVQPGGSLRLSCAASAASGFTLDLYTIAWFLQAPGKEREGVSAISLSDEITYYSDAVKGRFTISRDSAKNTVFLQMDRLKPEDTGVYYCAIGAFDFILKEVDADYWGQGTQVTVSS | 0.065 | – |
| Ma8D07 (VHH) VHH: QVQLVESGGGLVQPGGSLRLSCAASESIYKLNAMGWYRQAPGKELELVTTISSGGSTFYTDPVKGRFTISTDNAKNTVYLQMRSLKPEDTAMYYCAANPTYNHYSARGQGTQVTVSS | 0.8 | – |
| Ma8D08 (VHH) VHH: QVQLVESGGGFVQAGGSLRLSCAASESIYKLNAMGWYRQAPGKELELVTTISSGGSTFYTDPVKGRFTISTDNAKNTVYLQMRSLKPEDTAMYYCAANPTYNHYSARGQGTQVTVSS | 1 | – |
| Ma7D06 (VHH) VHH: QVQLVESGGGLVQAGGSLRLSCAASGSISGIDTMAWFRQIPGKDREFVAVIKWAAGSTWYPDFVKGRFTVSRDNAKNMVYLQMDSVKPEDTAIYYCAAAAGEKYYYRLFPYEYDYWGQGTQVTVSS | 0.06 | – |
| Ma7F02 (VHH) VHH: QVQLVESGGGLVQAGGSLRLSCTVSGSIDSLHTMGWFRQAPGKKRDFVAVVSWSGGNTYYPDYAKGRFTISRDNTKNTVYLQMNSLKPEDTAIYYCAAESGSGNYWKIWEHEFDSWGQGTQVTVSS | 0.04 | Kd (Cys-HLA [4]): ~0.05 nM |
| Bm28C04 (VHH) VHH: QVQLVESGGGSVQPGNSLRLSCKVSGRTFNSYALGWFRRRPGDQRDFVASIIRSTGGTSYADSVKGRFTISYDNVQNTVDLQMNSLEPEDTAIYYCAGGDGHIYAFGYDYWGQGTQVTVSS | ≤ 0.01 | Kd (Cys-HLA [3]): 0.04 nM; Kd (Cys-HLA [4]): ~0.05 nM |
| Bm28H07 (VHH) VHH: QVQLVESGGGSVQPGNSLRLSCKVSGRTFNSYALGWFRRRPGDQRDFVASIIRSTGGTSYADSVKGRFTISYDNVQNTVDLQMSSLEPEDTAIYYCAGGDGHIYAFGYDYWGQGTQVTVSS | ≤ 0.01 | – |
| Bm28C09 (VHH) VHH: QVQLVESGGSVVQAGGSLRLSCTASGRNFNSYAMGWFRRPPGEQRDFIAAIIRSTGKTTYADSDSVKGRFTISKDSSGNTVYLQMNNLKPEDTAIYYCAGGDAGPYAFGYDYWGQGTQVTVSS | ≤ 0.01 | Kd (Cys-HLA [3]): 0.015 nM |
| Ma8H03 (VHH) VHH: QVQLVESGGGLVHPGGSLRLSCAASGSSLDHYVIGWFRQVPGKQREGISCISSGGSTNYADSVKGRFTVSRDNVKSTVYLQMNSLAPDDSAEYYCAAQRNLGNFCVLGWLEYDDWGQGTQVTVSS | ≤ 0.01 | Kd (Cys-HLA [2]): ≤ 1 pM |
| Bm28H01 (VHH) VHH: QVQLVESGGGLVQPGGSLTLSCAASGFTLGDRTLGWFRQVAGKQREGVASIASGVLSAYIADSVKGRFTISRDDAKNTIYLHMNNLKPDDTGVYYCARGVDSWRWVPSTMDLWGKGILVTVSS | ≤ 0.01 | – |
| Ma7C02 (VHH) VHH: QVQLVESGGGLVQAGGSLRLSCAASGRTFSDYAMGWFRQAAGKDRDFVAVITRSGDSTYYPDSTKGRFTISRDNAKNTMYLQMNSLKPEDTARYYCAATDPTNYWRIWEHEFDYWGQGTQVTVSS | 0.09 | – |

Reference: patent publication US20260226142A1 (MAX PLANCK GESELLSCHAFT ZUR F RDERUNG DER WISSENSCHAFTEN E V, published 2026)
